Measurements: FireProtDB (doi:10.1016/j.bpc.2008.08.008)
“And” between values parts separate entries of the source, which are not always exact repeats. Equal values may be shown once.

Details: Capra hircus, pH 6, Cacodylate 0.03 M, Potassium chloride 0.1 M, reversible: Yes; for denaturant midpoint (higher = more stable) / unfolding free energy: 25 °C, GdnHCl

wild type, Q3LUG9, sequence (Q3LUG9 entry or part of it): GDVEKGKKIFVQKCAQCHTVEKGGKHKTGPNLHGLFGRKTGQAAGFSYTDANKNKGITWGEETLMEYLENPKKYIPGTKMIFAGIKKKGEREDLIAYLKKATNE

Substance: wild type, Q3LUG9
- denaturant midpoint (higher = more stable) (Absorbance): 2.7 M and 2.6 M
- unfolding free energy (Absorbance): 9.49 kcal/mol and 9.39 kcal/mol
- denaturant midpoint (higher = more stable) (CD): 2.5 M and 2.6 M
- unfolding free energy (CD): 9.3 kcal/mol and 9.58 kcal/mol
- heat capacity change of unfolding (Thermal, CD): 1.29 kcal/mol/K
